Assay results taken from the supplement of paper PMC12764529.
± gives the half width of the 95% confidence interval.

What was measured:
[1] = folding stability dG unfold from trypsin proteolysis; higher = more stable
Procedure, shortened: (§1)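 Designed mini-proteins with no cysteine and under 80 residues were kept only if AlphaFold2 dimer inter-PAE was above 15. In a PA-tagged cDNA display construct, they were digested with trypsin and chymotrypsin and then sequenced. K50 was inferred by Bayesian fitting of counts, and unfolding free energy was derived per protease or combined against a sequence-predicted unfolded-state K50 and a shared folded-state K50.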

[2] = folding stability dG unfold (combined trypsin and chymotrypsin); higher = more stable
Procedure, shortened: as §1

[3] = folding stability dG unfold from chymotrypsin proteolysis; higher = more stable
Procedure, shortened: as §1

Sequence | folding stability dG unfold [1] | folding stability dG unfold [2] | folding stability dG unfold [3]
SKTVIIEVPAKDLDKIKELIKKLKPGQKVKIVFKDANGKLITVTIEVKPAPPPKISLEELSEEQRKALEKSA [r9_1103_TrROS_Hall] | 1.53 ± 0.081 kcal/mol | 1.79 ± 0.28 kcal/mol | 1.89 ± 0.23 kcal/mol
SKVEIEVERLPDGTLLVRATAEIPGIPGEKIELAVLVRLPAPERVEVRLLAAPPVETVTETRTYSEEEKKSA [r9_1009_TrROS_Hall] | 1.27 ± 0.12 kcal/mol | 1.46 ± 0.17 kcal/mol | 1.52 ± 0.11 kcal/mol
SKVKVYIIKKDKVIPEIELDVSSVEEAVEKVLEYISKLPKNTPYLVRIEVEKYDPATGKKSYGTLLLPVGSA [r9_245_TrMRF] | 2.76 ± 0.048 kcal/mol | 4.05 ± 0.1 kcal/mol | 4.53 ± 0.095 kcal/mol
SKVTIYFPNMPPEEIIDAIRKNPGKPVEIWMMPNNPDRFKNWLQDAKIEVEPQPNPDGQPWVKMEIEVPDSA [r9_1138_TrROS] | 0.571 ± 0.035 kcal/mol | 0.794 ± 0.078 kcal/mol | 0.969 ± 0.095 kcal/mol
SKYVQVRFPNYTIMVKKRKSPNGKPEVEVMLYNPPNGKMIPVEVKSPEDAEEAVKDAIRAMFPDEELRDLSA [r9_749_TrROS] | 0.827 ± 0.09 kcal/mol | 0.687 ± 0.17 kcal/mol | 0.46 ± 0.47 kcal/mol
SLEVARELGLPVERAIPTSVDPFNGRTHLVVLVSLPSRFVRIEVDVRYEPDPDGRLIPRVEVLRIEVFPESA [r9_613_TrMRF] | 2.59 ± 0.048 kcal/mol | 3.21 ± 0.05 kcal/mol | 3.67 ± 0.04 kcal/mol
SLKNGDPIMVKIEIEQYNPKNGKPQEQKHSIMIPPGDPVTINIPGLPPGYKVRVEIYPMDGKPIGEHTIPSA [r9_478_TrROS] | 1.73 ± 0.12 kcal/mol | 1.48 ± 0.14 kcal/mol | 1.14 ± 0.047 kcal/mol
SLKPGEPRTVEMTMIIPITPDEIAKLFGLDIPPGTYIMVEMRMRVPPNADIEMDPDIHLYDPDDNKWFPISA [r9_349_TrROS] | 2.18 ± 0.089 kcal/mol | 2.86 ± 0.22 kcal/mol | 3.29 ± 0.086 kcal/mol
SLLENLKIEEIKEYTLPDGSPAIVIRFGDYTIVFNPGTGELRIYKGDKIIRTITIPFPIPDPNKPEDLAASA [r9_1065_TrMRF] | 3.22 ± 0.16 kcal/mol | 3.28 ± 0.084 kcal/mol | 3.405 ± 0.034 kcal/mol
SLPNRPLVPFELELRLPRFEVRVRLYRLPDGSYLLVAEIRFPNGLTARAEFVLDPVTGRIYLVRVEVRPESA [r9_795_TrMRF] | 3.82 ± 0.041 kcal/mol | 4.29 ± 0.05 kcal/mol | 4.56 ± 0.05 kcal/mol
SLPYTPSTAELTLTLPGGEVKVKANVYTLPDGSTITIATFPDGSVAVYDPSLGRLVLYDPSTGKPIAVLGSA [r9_970_TrMRF] | 2.41 ± 0.038 kcal/mol | 2.32 ± 0.028 kcal/mol | 2.173 ± 0.013 kcal/mol
SLSITVPPDKGLVLVNEGLKDGKVKLFLDDKVEEVEVPAGETLVFEVPPDYKGFKLEVIGDDGVVLSVDGSA [r9_143_TrMRF] | 0.627 ± 0.13 kcal/mol | 0.599 ± 0.22 kcal/mol | 0.322 ± 0.29 kcal/mol
SLSKSTPVSSLEEALKIAKEAAEEFEKELGKPYPVLVEVEFEPLEDGSVLVRFKLYRPEEGKYLREIEVGSA [r9_794_TrMRF] | 0.874 ± 0.064 kcal/mol | 1.38 ± 0.18 kcal/mol | 1.67 ± 0.2 kcal/mol
SLTLTDPVLVLVEVDLYNPETGAPTKRSLAVLVPPGTPVTVTLPGVHPDARVRVTVYTPNGKPLGEFELPSA [r9_478_TrMRF] | 2.1 ± 0.13 kcal/mol | 2.26 ± 0.14 kcal/mol | 2.12 ± 0.12 kcal/mol
SMEDMSVEELLELLREKLREAREKGKSLEDIKITIVIVAETEEEKEAIAKALKEEFPEIKEIKIEVLPPESA [r9_341_TrROS_Hall] | 3.06 ± 0.14 kcal/mol | 2.92 ± 0.26 kcal/mol | 2.64 ± 0.15 kcal/mol
SMEEELPPKVTEVVVKVPLSPDASPEEIAAARALAAELAAALEAAGYRDVEVTVEPTEPGALVIRARVVVSA [r9_865_JUSTAS] | 2.79 ± 0.036 kcal/mol | 3.908 ± 0.034 kcal/mol | 4.36 ± 0.057 kcal/mol
SMEEFAKSLPDVKIETKPLSPDEIEITVYIPSDPEKAKKVEEIVKKLAEEIEKKTGIKVKVTFKPVPPEESA [r9_1099_JUSTAS] | 3.24 ± 0.24 kcal/mol | 3.59 ± 0.68 kcal/mol | 3.32 ± 0.21 kcal/mol
SMEELLEKALEEAKEAAEKGEKTVIIEIRVDGKTFRIEIDVETGEIVKIEKEKREDGSEIFRIEIKLPEPSA [r9_308_TrROS_Hall] | 0.695 ± 0.07 kcal/mol | 1.3 ± 0.39 kcal/mol | 1.61 ± 0.086 kcal/mol

Sequence | folding stability dG unfold [1] | folding stability dG unfold [2] | folding stability dG unfold [3]
SMEIRIKEVNEDGYLVIEIRVLSEDGKELTPEEVEELAEEIAAELKEKFPDVKVTVERLEDGTVRIVVEPSA [r9_485_TrROS_Hall] | 3.19 ± 0.15 kcal/mol | 2.89 ± 0.22 kcal/mol | 2.65 ± 0.15 kcal/mol
SMETPPEELVERVREYLASQGYTVTSVEVTPLPDGSVRVEVTATPPDASTTLTITVTVPPDGTVVVEVTAQS [r1_460_JUSTAS] | 3.76 ± 0.2 kcal/mol | 5.3 ± 0.15 kcal/mol | 5.26 ± 0.12 kcal/mol
SMETVELRVRVRVFNPETGELVEEIEVTVTLPKGMTLEEALRRAREALREALERLLRPPEPVLDEDGRLVSA [r9_454_TrROS_Hall] | 3.66 ± 0.12 kcal/mol | 3.99 ± 0.14 kcal/mol | 4.26 ± 0.19 kcal/mol
SMEVEFDPENRTIVATVPEGVDPLAVAATLLAVVRELFDSGPVRLIVTNGDEVLEYLLGEDVLEVRPAGESA [r9_224_TrMRF] | 3.26 ± 0.11 kcal/mol | 4.01 ± 0.1 kcal/mol | 4.21 ± 0.11 kcal/mol
SMEVVEEFTLPNGTRITLTKNEDGTVTVTLETTVKNPETGKTTTKTVTITVKLEPGEEYSLEELLATLLSSA [r9_614_TrROS_Hall] | 3.5 ± 0.12 kcal/mol | 3.7 ± 0.078 kcal/mol | 3.77 ± 0.039 kcal/mol
SMEVYTEETEEKSPTPLRRRTTTTTVVTRDGSRTVVTVETRVELEPVPPVPPRPLPPIYTPENREVNILLSA [r9_965_JUSTAS] | 1.54 ± 0.17 kcal/mol | 1.38 ± 0.73 kcal/mol | 0.51 ± 0.81 kcal/mol
SMFKNVKSVHIYQDPIKGNNLIIVAETEEGTVELELPEDKAIEFLNTLKEKGFDIKVTHVEYLPVSPEYGSA [r9_607_TrMRF] | 2.19 ± 0.064 kcal/mol | 2.36 ± 0.081 kcal/mol | 2.453 ± 0.011 kcal/mol
SMIKPDEVVEKIEFTFPDGVAGDTRTFPVPEGSVIVYIDLGEPVYVMEILEDGSVKIEPVPEEVAKELAKSA [r9_1144_TrMRF] | 0.37 ± 0.048 kcal/mol | 0.3 ± 0.12 kcal/mol | 0.115 ± 0.1 kcal/mol
SMIPVEELVRLAAERLGLPEEELENIEEVEPFEVEPLPDNAVRVKLRIRLKNPESDEVTELDIEIVDPGGSA [r9_230_TrMRF] | 1.2 ± 0.021 kcal/mol | 1.92 ± 0.072 kcal/mol | 2.21 ± 0.033 kcal/mol
SMIQVDIKPDAINVTVTKEGKSVTVPMDLEELEELLKKGVEKVEIKSPDPEVLEKIKELVEKAGVPIELKSA [r9_810_JUSTAS] | 1.09 ± 0.1 kcal/mol | 1.02 ± 0.25 kcal/mol | 0.686 ± 0.06 kcal/mol
SMISLEKETSLPPEEARRAVERFLAELPEVERLLSVEVREDPDSYTVSLTLEGGAVSPEVLEAIERALAASA [r9_195_JUSTAS] | 2.54 ± 0.053 kcal/mol | 2.63 ± 0.062 kcal/mol | 2.71 ± 0.039 kcal/mol
SMKIEKKDGKYVLTIKIKADSVEEVLNALKKLGIKFPPGVKEIKVVKVEEVNGEVYITIVVDTEEALKALSA [r9_820_TrROS_Hall] | 2.93 ± 0.13 kcal/mol | 2.6 ± 0.28 kcal/mol | 2.34 ± 0.09 kcal/mol
SMKIEPHPDGTVTFTIPAEFPDIPAEEIAALIEKALPPGVRLGEEITVERDPETGEVRVTAKVEVPPDAVSA [r9_1011_TrMRF] | 2.49 ± 0.12 kcal/mol | 2.74 ± 0.12 kcal/mol | 2.81 ± 0.073 kcal/mol
SMKILIVTKEKAEELAEAIKKKFPNIEIEVFDTPEEAEEAAKKGDIVIVIGSEEEAKELAKKLKVKVIKISA [r9_380_TrROS_Hall] | 2.19 ± 0.09 kcal/mol | 2.86 ± 0.45 kcal/mol | 3.39 ± 0.12 kcal/mol
SMKITPLPGPEEVAEFPETGETITITRDPSTGLVTVTYNGPGTPVTATTDPAVGTVTVNTPDGKITIPLTSA [r9_541_JUSTAS] | 0.669 ± 0.02 kcal/mol | 0.346 ± 0.072 kcal/mol | -0.512 ± 0.22 kcal/mol
SMKIYILSSGDKEKVLAEVKEKYPDLEIELFEDIEEAKKAAEKGNLLISNGDEELAKEFEEKYNVKVIIKSA [r9_380_JUSTAS] | 1.41 ± 0.039 kcal/mol | 1.6 ± 0.14 kcal/mol | 1.65 ± 0.041 kcal/mol
SMKKGEKIKIEKKKDGTLKITLPDGKEITVPLKDIKIEIKDGKIKITVFKDGKKIAEFELKIKKKKKKKKSA [r9_901_TrROS_Hall] | 1.71 ± 0.07 kcal/mol | 2.31 ± 0.42 kcal/mol | 2.64 ± 0.11 kcal/mol
SMKPEEVKVIAEIEIEVNGKKIKIKIVKKKDGTVRVEIEVDGKKIEIEVKVKSKEEAKKILEELLKKLGISA [r9_758_TrROS_Hall] | 2.93 ± 0.4 kcal/mol | 2.41 ± 0.52 kcal/mol | 1.53 ± 0.14 kcal/mol
